According to US20100048450A1, “Sumoylation Control Agent and Uses Thereof” (priority 2005, published 2010):
Residues, ends and D or L forms follow the SMILES beside them. *: point of attachment. Cbz = O=C(OCc1ccccc1)*

How the values were obtained:
[1] = system: HLS-5; test: Confocal microscopy of HLS-5 localisation in COS7 cells; assay type: cell-based
Source text: (A) Confocal microscopy of COS7 cells co-expressing Myc-tagged HLS-5 and GFP-SUMO-1. HLS-5 was detected with anti-Myc antibodies in conjunction with red secondary antibodies and SUMO-1 detected by green fluorescent. (B) Confocal microscopy of COS7 cells co-expressing Myc-tagged HLS-5 and GATA-1. GATA-1 was detected with an anti-GATA-1 antibody and HLS-5 was detected with anti-Myc antibodies in conjunction with red and green fluorescent secondary antibodies respectively. (C) Confocal microscopy of COS7 cells co-expressing myc-tagged HLS-5 in the presence of MG132. HLS-5 was detected with anti-Myc antibodies in conjunction with red fluorescent secondary antibodies
(§1) Also, COS7 cells co-expressing Myc-tagged HLS-5 or a mutant form of HLS-5 lacking its Ring finger (ΔN61) and HA-tagged SUMO1 were analysed in the presence or absence of MG132.
As HLS-5 is located principally within cytoplasmic granules, the effects of Ubc9, PIAS1, MG-132 and SUMO-1 on HLS-5 compartmentalization were investigated. […] However, when the SUMO-1 and HLS-5 were co-expressed, there was a remarkable increase in the amount of HLS5 appearing in the nucleus (FIG. 3A). Therefore SUMO1 promoted translocation of HLS-5 from cytoplasmic granules into the nucleus.

[2] = system: Hela cells; test: HLS5-induced apoptosis in co-transfected Hela cells; assay type: cell-based, human; conditions: HLS5 alone or co-transfected with the named protein
Source text: To examine the biological effects of Ubc9, PIAS1 and SUMO-1 on HLS5-induced apoptosis, COS cells and HeLa cells were co-transfected with these molecules and cell death monitored. […] However, the effects of SUMO-1 on cell death induced by HLS5 were less pronounced.

[3] = biological target: T1, SUMO-1 (Homo sapiens, UniProt P63165); test: Yeast two-hybrid binding of HLS-5 to SUMO-1
T1 construct: expressed in transfected cells; host or cells: yeast (two-hybrid)
T1 sequence (P63165 whole entry, species assumed): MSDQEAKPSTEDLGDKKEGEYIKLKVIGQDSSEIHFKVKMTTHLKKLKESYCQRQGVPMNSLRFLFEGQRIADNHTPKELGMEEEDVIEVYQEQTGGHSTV
Protocol: (§2) (A) Potential sumoylation sites of HLS-5 are shown. (B) Binding of Hls-5 deletion mutants to full length Sumo-1 was examined in the yeast system by filter assay for β-galactosidase activity. (C) Interaction between Hls-5 and Sumo-1, 2 or 3 was examined using yeast two-hybrid. Binding was assessed using a liquid assay to measure β-galactosidase activity. Samples were measured in triplicate and shown is the mean±standard deviation. (D) Lysates from COS7 cells transfected with Myc-tagged Hls-5, and/or HA-tagged Sumo-1, HA-tagged UBC9, HA-tagged PIAS1 were immunoblotted (IB) with antibodies to Sumo-1 or Myc.
(§3) Since HLS-5 was able to interact with Ubc9 and PIAS1, the possibility that HLS-5 is sumoylated was then examined. Like other RBCC/TRIM family members such as PML (Duprez et al., 1999, J Cell Sci., 112, 381-393; Kamitani et al., 1998, J. Biol. Chem., 273, 26675-26682), HLS-5 has several ΨKxE/D consensus sumoylation sites (FIG. 2a). To determine if HLS-5 was able to bind SUMO-1, the yeast two-hybrid system was employed using several HLS-5 deletion mutants.

[4] = system: GATA-1; test: Co-immunoprecipitation of HLS-5 and GATA-1 in COS cells; assay type: binding; conditions: with isopeptidase inhibitors NEM and IAA
Protocol: (§4) (B and C) Lysates from COS7 cells transfected with Myc-tagged HLS-5 and/or GATA-1, and/or HA-tagged Sumo-1, and/or HA-tagged PIAS1 were immunoblotted (IB) with antibodies to GATA-1, HA or Myc D) COS7 cells were transfected as shown in the presence of pGL3-M1α firefly luciferase reporter construct and pRN-CMV renilla luciferase construct. Relative GATA-1 activity was determined by dividing firefly activity with renilla activity. Amount of DNA used was 200 ng per transfection (+) unless otherwise shown. Samples were performed in duplicate and shown is the mean±range. Data shown are representative of three independent experiments.
The interaction between GATA-1 and HLS5 was then examined biochemically by transfecting COS cells with myc-tagged HLS-5 and GATA-1, followed by immunoprecipitation and immunoblotting.

[5] = biological target: T2, Ubc9 (Homo sapiens, UniProt P63279); test: Yeast two-hybrid binding of HLS-5 to Ubc9; conditions: yeast 2 hybrid, β-galactosidase filter assay
T2 construct: expressed in transfected cells; host or cells: yeast (two-hybrid)
T2 sequence (P63279 whole entry, species assumed): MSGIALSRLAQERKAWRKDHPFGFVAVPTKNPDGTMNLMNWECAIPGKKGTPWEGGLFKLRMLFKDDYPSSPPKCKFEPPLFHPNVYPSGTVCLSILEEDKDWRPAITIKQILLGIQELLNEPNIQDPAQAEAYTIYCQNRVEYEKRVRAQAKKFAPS
Protocol: (§5) (A) Full length Ubc9 was examined for binding to various HLS-5 constructs as shown using yeast two-hybrid. Binding was measured by filter assay for β-galactosidase activity. (B) BRET assay of COS7 cells expressing HLS-5. Rluc fusion protein with increasing amounts of GFP-Ubc9 fusion protein. Results presented as BRET ratio. (C) PIAS1 (aa 303-651) fragment isolated from the Y2H screen was assessed for binding to various HLS-5 constructs as shown using yeast two-hybrid. Binding was measured by filter assay for β-galactosidase activity. (D) Lysates from COS7 cells transfected with Myc-tagged HLS-5, HA-tagged PIAS1 and/or GATA-1 were immunoprecipitated (IP) with anti-Myc antibodies and immunoblotted (IB) with antibodies to HA or Myc in the presence and/or absence of NEM/IAA.
A yeast two-hybrid screen for HLS-5 interacting partners identified two proteins involved in the sumoylation pathway viz Ubc9 and PIAS1.
The interaction between HLS-5 and Ubc9 was characterized further by yeast 2 hybrid assays to define important binding domains. […] To confirm that HLS-5 and Ubc9 were genuine binding partners, the interaction was investigated in mammalian cells using bioluminescence resonance energy transfer (BRET), which is able to detect protein:protein interactions in living cells (Xu et al., 1999, Proc Natl Acad Sci USA, 96, 151-156). […]

[6] = system: GATA-1; test: GATA-1 transactivation luciferase reporter assay in COS cells; assay type: cell-based
Protocol: as §4
The effect of HLS-5 on sumoylated GATA-1 transactivation was then examined using the MIα promoter and luciferase reporter assays. […] These observations contrast with the inhibitory effects of GATA-1 sumoylation on transactivation reported by Collavin et al. (2004, supra). […] These observations are consistent with a modulatory role for HLS5 in sumoylation.

[7] = system: SUMOylated substrate; test: SUMOylated substrate co-immunoprecipitating with Myc-tagged HLS-5 in COS7 cells; assay type: cell-based; conditions: HA-tagged SUMO1, in the presence of MG132, FIG. 6A
Protocol: (A) COS7 cells co-expressing Myc-tagged HLS-5 or a mutant form of HLS5 lacking its Ring finger (ΔN61) and HA-tagged SUMO1 in the presence or absence of MG132. SUMOylated substrate was detected with an anti-HA antibody and HLS-5 was immunoprecipitated by using a Myc antibodies respectively.
as §1

[8] = system: global SUMOylation; test: Total protein sumoylation by immunoblotting in COS cells co-expressing SUMO-1 and HLS-5; assay type: cell-based; conditions: SUMO-1 and HLS-5 co-expressed
Source text: (§6) (A) Hela cells co-expressing Myc-tagged HLS-5 and HA-tagged PIAS1. PIAS1 was detected with an anti-HA antibody and HLS-5 was detected as a GFP fusion protein in conjunction with red and green fluorescent secondary antibodies respectively. (B) COS7 cells transfected with GFP-tagged HLS-5 and/or HA-tagged PIAS1, UBC9 or SUMO-1 and immunoblotted (IB) with antibodies to HA. (C) Lysates from COS7 cells transfected with Different Myc-tagged HLS-5 deletion constructs and HA-tagged-PIAS1, and GFP-tagged Histone 2B as a transfection/Loading control. Samples were immunoblotted (IB) with antibodies to GFP, HA and Myc.
(§7) To investigate whether HLS-5 was a functional E3 ligase, SUMO-1 and HLS-5 were co-expressed in COS cells and total protein sumoylation ascertained by immunoblotting. […] We then investigated which domain of HLS-5 was involved in the elimination of PIAS1 protein expression. […] Thus, HLS-5 altered global protein SUMOylation and reduced intracellular content of SUMO-1, PIAS1 and Ubc9, key components of the SUMOylation machinery and this action is accomplished partly through its B Box & Coiled Coil domain.

[9] = system: SUMO-3; test: Yeast two-hybrid binding of HLS-5 to SUMO-3; conditions: liquid β-galactosidase assay
Protocol: as §2, §3

[10] = system: Ubc9; test: Immunoblot of Ubc9 levels in COS cells co-expressing HLS-5; assay type: cell-based; conditions: co-expression, FIG. 5B
Source text: as §6, §7

[11] = system: PIAS1; test: Immunoblot of PIAS1 levels in COS cells co-expressing HLS-5 or deletion mutants; assay type: cell-based; conditions: co-expression with HA-tagged PIAS1, FIG. 5B/5C
Source text: as §6, §7

[12] = system: SUMO-1; test: Immunoblot of SUMO-1 levels in COS cells co-expressing HLS-5; assay type: cell-based; conditions: SUMO-1 and HLS-5 co-expressed, FIG. 5B
Source text: as §6, §7

[13] = biological target: T3, PIAS1 (Homo sapiens, UniProt O75925); test: Co-immunoprecipitation of HLS-5 and PIAS1 in COS cells; assay type: binding; conditions: when GATA-1 was present
T3 construct: HA; expressed in transfected cells; host or cells: COS7
T3 sequence (O75925 whole entry, species assumed): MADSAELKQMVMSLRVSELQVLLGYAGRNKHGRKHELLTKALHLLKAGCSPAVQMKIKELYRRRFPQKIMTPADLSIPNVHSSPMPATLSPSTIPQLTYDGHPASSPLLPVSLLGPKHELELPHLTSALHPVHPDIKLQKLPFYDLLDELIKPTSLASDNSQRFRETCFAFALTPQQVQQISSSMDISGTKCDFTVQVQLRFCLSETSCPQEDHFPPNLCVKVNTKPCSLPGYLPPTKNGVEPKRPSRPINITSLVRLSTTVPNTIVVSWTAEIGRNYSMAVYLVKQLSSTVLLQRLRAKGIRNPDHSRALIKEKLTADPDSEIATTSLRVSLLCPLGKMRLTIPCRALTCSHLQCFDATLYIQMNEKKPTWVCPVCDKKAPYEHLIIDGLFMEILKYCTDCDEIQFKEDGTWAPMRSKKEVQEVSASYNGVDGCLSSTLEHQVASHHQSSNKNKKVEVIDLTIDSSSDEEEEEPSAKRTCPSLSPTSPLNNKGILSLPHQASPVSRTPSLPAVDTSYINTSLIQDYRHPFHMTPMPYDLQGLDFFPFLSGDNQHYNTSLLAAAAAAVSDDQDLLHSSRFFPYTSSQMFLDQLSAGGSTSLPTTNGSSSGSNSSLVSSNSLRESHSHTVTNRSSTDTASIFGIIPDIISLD
Protocol: as §5
As PIAS1 mainly is a nuclear protein (Tan et al., 2000, Mol Endocrinol, 14, 14-26), and HLS-5 is primarily cytoplasmic, the failure of these molecules to interact may be caused by subcellular separation. Since GATA-1 promotes nuclear re-localization of HLS-5 (see below and FIG. 3b) it was included in co-transfections with HLS5 and PIAS1. […] It is postulated that the redistribution of HLS-5 induced by GATA-1 enabled nuclear access and binding to PIAS1 or that GATA-1, HLS-5 and PIAS1 form a protein complex required for this interaction.

[14] = biological target: T2, Ubc9; test: BRET assay of HLS-5 and Ubc9 in COS cells; assay type: binding; conditions: HLS-5 and Ubc9 constructs co-expressed in COS cells
Protocol: as §5
The interaction between HLS-5 and Ubc9 was characterized further by yeast 2 hybrid assays to define important binding domains. […] To confirm that HLS-5 and Ubc9 were genuine binding partners, the interaction was investigated in mammalian cells using bioluminescence resonance energy transfer (BRET), which is able to detect protein:protein interactions in living cells (Xu et al., 1999, Proc Natl Acad Sci USA, 96, 151-156). […] However, this interaction may well be transient as the two molecules could not be co-immunoprecipitate (data not shown). […]

[15] = system: SUMO-2; test: Yeast two-hybrid binding of HLS-5 to SUMO-2; conditions: liquid β-galactosidase assay
Protocol: as §2, §3

| interaction with SUMO-1 [3] | association with Ubc9 [5] | binding to SUMO-3 [9] | co-immunoprecipitation with PIAS1 [13] | BRET ratio [14] | binding to SUMO-2 [15] | Molecule | translocation of HLS-5 from cytoplasmic granules into the nucleus ([1]; COS7 cells) | effect on HLS-5 accumulation ([1]; COS7 cells expressing myc-tagged HLS-5, FIG. 3C) | apoptosis / cell death caused by HLS5 [2] | co-immunoprecipitation with GATA-1 [4] | GATA-1 activity ([6]; co-expression with SUMO-1) | GATA-1 transactivation ([6]; in the presence of both SUMO-1 and PIAS1) | SUMOylated substrate detected with anti-HA antibody [7] | overall sumoylation [8] | Ubc9 protein level [10] | PIAS1 protein level [11] | reduction of the levels of SUMO-1 [12] |
| --- | --- | --- | --- | --- | --- | --- | --- | --- | --- | --- | --- | --- | --- | --- | --- | --- | --- |
|  |  |  |  |  |  | CC(C)C[C@@H](C=O)NC(=O)[C@H](CC(C)C)NC(=O)[C@H](CC(C)C)NC(=O)OCc1ccccc1 [MG132] (Cbz-Leu-Leu-Leu-aldehyde) | translocation was also observed | accumulation of HLS-5 |  |  |  |  |  |  |  |  |  |
|  |  |  |  |  |  | Ubc9: E2 enzyme in the SUMO-1 conjugation pathway |  |  | 12 % of cells |  |  |  |  |  |  |  |  |
| could interact with SUMO-1 | able to associate with Ubc9 | neither SUMO-2, nor SUMO-3 bound | could co-immunoprecipitate | positive BRET ratio | neither SUMO-2, nor SUMO-3 bound | HLS-5: member of the RING finger B-box Coiled-coil (RBCC) protein family; tested by expression from transfected constructs (protein, listed as Homo sapiens) MERSPDVSPGPSRSFKEELLCAVCYDPFRDAVTLRCGHNFCRGCVSRCWEVQVSPTCPVCKDRASPADLRTNHTLNNLVEKLLREEAEGARWTSYRFSRVCRLHRGQLSLFCLEDKELLCCSCQADPRHQGHRVQPVKDTAHDFRAKCRNMEHALREKAKAFWAMRRSYEAIAKHNQVEAAWLEGRIRQEFDKLREFLRVEEQAILDAMAEETRQKQLLADEKMKQLTEETEVLAHEIERLQMEMKEDDVSFLMKHKSRKRRLFCTMEPEPVQPGMLIDVCKYLGSLQYRVWKKMLASVESVPFSFDPNTAAGWLSVSDDLTSVTNHGYRVQVENPERFSSAPCLLGSRVFSQGSHAWEVALGGLQSWRVGVVRVRQDSGAEGHSHSCYHDTRSGFWYVCRTQGVEGDHCVTSDPATSPLVLAIPRRLRVELECEEGELSFYDAERHCHLYTFHARFGEVRPYFYLGGARGAGPPEPLRICPLHISVKEELDG |  |  | 60 % of cells | GATA-1 was detected in HLS-5 immunoprecipitates | decreased GATA-1 activity | suppressed GATA-1 transactivation | SUMOylated substrate detected | reduced | reduced the levels of Ubc9 | almost complete elimination of PIAS1 | > 95% |
